The source of these data is IntAct's records for PubMed 18250304.

First the molecules themselves.
B1: Endothelial transcription factor GATA-2 (Homo sapiens), P23769 (parent)
chain: MEVAPEQPRWMAHPAVLNAQHPDSHHPGLAHNYMEPAQLLPPDEVDVFFNHLDSQGNPYYANPAHARARVSYSPAHARLTGGQMCRPHLLHSPGLPWLDGGKAALSAAAAHHHNPWTVSPFSKTPLHPSAAGGPGGPLSVYPGAGGGSGGGSGSSVASLTPTAAHSGSHLFGFPPTPPKEVSPDPSTTGAASPASSSAGGSAARGEDKDGVKYQVSLTESMKMESGSPLRPGLATMGTQPATHHPIPTYPSYVPAAAHDYSSGLFHPGGFLGGPASSFTPKQRSKARSCSEGRECVNCGATATPLWRRDGTGHYLCNACGLYHKMNGQNRPLIKPKRRLSAARRAGTCCANCQTTTTTLWRRNANGDPVCNACGLYYKLHNVNRPLTMKKEGIQTRNRKMSNKSKKSKKGAECFEELSKCMQEKSSPFSAAALAGHMAPVGHLPPFSHSGHILPTPTPIHPSSSLSFGHPHPSSMVTAMG

In this experiment the parent is B1. The note with it: with cbp_human CREBBP.
As for L359V, the “effect of a mutation on the interaction” value is “increasing interaction”.
